From the supplement of paper PMC10567573

B1: PTPLAD1 (parent)
chain: YSFYMLTCIDMDWKVLTWLRYTLW
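Note: lentivirally expressed fusions sorted by FACS into six bins by GFP to DsRed ratio, PSI derived from sequencing read proportions per bin multiplied by bin number.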

Variants of: B1
Assay: protein stability index of a GFP-peptide fusion (GPS, HEK-293T) (PSI 1-6); higher = more stable
Conditions: c terminus: a fixed tail appended
Variant YSFYMLTCIDMDWKVRTWLRYTLW has a protein stability index of 2.13.
In the case of YSFYMLTCIDMDWKVATWLRYTLW, the protein stability index is reported as 3.49.
Work on YSFYMLTCIDMDWKVDTWLRYTLW yielded a protein stability index of 3.41.
YSFYMLTCIDMDWKVYTWLRYTLW showed a protein stability index of 1.59.
YSFYMLTCIDMDWKVNTWLRYTLW showed a protein stability index of 4.69.
With YSFYMLTCIDMDWKVWTWLRYTLW the protein stability index was 3.38.
Work on YSFYMLTCIDMDWKVETWLRYTLW yielded a protein stability index of 2.06.
Variant YSFYMLTCIDMDWKVITWLRYTLW has a protein stability index of 1.75.
YSFYMLTCIDMDWKVFTWLRYTLW showed a protein stability index of 3.23.
For YSFYMLTCIDMDWKVVTWLRYTLW, the protein stability index was 1.5.
YSFYMLTCIDMDWKVPTWLRYTLW gave a protein stability index of 2.32.
Variant YSFYMLTCIDMDWKVQTWLRYTLW has a protein stability index of 2.4.
With YSFYMLTCIDMDWKVLTQLRYTLW the protein stability index was 2.11.
Variant YSFYMLTCIDMDWKVLTTLRYTLW has a protein stability index of 3.35.
YSFYMLTCIDMDWKVLTALRYTLW showed a protein stability index of 2.61.
For YSFYMLTCIDMDWKVLTFLRYTLW, the protein stability index was 3.34.
Variant YSFYMLTCIDMDWKVLTILRYTLW has a protein stability index of 3.65.
With YSFYMLTCIDMDWKVLTDLRYTLW the protein stability index was 1.68.
With YSFYMLTCIDMDWKVLTHLRYTLW the protein stability index was 4.4.
YSFYMLTCIDMDWKVLTKLRYTLW gave a protein stability index of 3.24.
YSFYMLTCIDMDWKVLTMLRYTLW gave a protein stability index of 1.84.
In the case of YSFYMLTCIDMDWKVLTVLRYTLW, the protein stability index is reported as 2.83.
In the case of YSFYMLTCIDMDWKLLTWLRYTLW, the protein stability index is reported as 1.89.
YSFYMLTCIDMDWKNLTWLRYTLW gave a protein stability index of 2.59.
YSFYMLTCIDMDWKTLTWLRYTLW showed a protein stability index of 2.91.
YSFYMLTCIDMDWKRLTWLRYTLW gave a protein stability index of 1.61.
YSFYMLTCIDMDWKILTWLRYTLW gave a protein stability index of 4.29.
For YSFYMLTCIDMDWKMLTWLRYTLW, the protein stability index was 1.03.
Variant YSFYMLTCIDMDWKCLTWLRYTLW has a protein stability index of 3.85.
YSFYMLTCIDMDWKYLTWLRYTLW showed a protein stability index of 3.09.
With YSFYMLTCIDMDWKELTWLRYTLW the protein stability index was 1.86.
In the case of YSFYMLTCIDMDWKKLTWLRYTLW, the protein stability index is reported as 3.92.
For YSFYMLTCIDMDWKQLTWLRYTLW, the protein stability index was 2.69.
In the case of YSFYMLTCIDMDWKWLTWLRYTLW, the protein stability index is reported as 2.22.
Work on YSFYMLTCIDMDWKVLTWLRYFLW yielded a protein stability index of 2.08.
YSFYMLTCIDMDWKVLTWLRYCLW showed a protein stability index of 2.07.
Work on YSFYMLTCIDMDWKVLTWLRYYLW yielded a protein stability index of 2.26.
For YSFYMLTCIDMDWKVLTWLRYHLW, the protein stability index was 2.85.
For YSFYMLTCIDMDWKVLTWLRYNLW, the protein stability index was 2.27.
YSFYMLTCIDMDWKVLTWLRYQLW gave a protein stability index of 2.2.
YSFYMLTCIDMDWKVLTWLRYRLW showed a protein stability index of 2.25.
YSFYMLTCIDMDWKVLTWLRYVLW showed a protein stability index of 1.99.
With YSFYMLTCIDMDWKVLTWLRYALW the protein stability index was 2.78.
With YSFYMLTCIDMDWKVLTWLRYMLW the protein stability index was 2.12.
In the case of YSFYMLTCIDMDWKVLRWLRYTLW, the protein stability index is reported as 3.47.
With YSFYMLTCIDMDWKVLIWLRYTLW the protein stability index was 2.68.
Work on YSFYMLTCIDMDWKVLCWLRYTLW yielded a protein stability index of 1.67.
Variant YSFYMLTCIDMDWKVLYWLRYTLW has a protein stability index of 1.8.
In the case of YSFYMLTCIDMDWKVLFWLRYTLW, the protein stability index is reported as 3.31.
YSFYMLTCIDMDWKVLVWLRYTLW gave a protein stability index of 2.23.
YSFYMLTCIDMDWKVLQWLRYTLW showed a protein stability index of 2.82.
For YSFYMLTCIDMDWKVLEWLRYTLW, the protein stability index was 2.15.
For YSFYMLTCIDMDWKVLWWLRYTLW, the protein stability index was 2.66.
Work on YSFYMLTCIDMDWKVLHWLRYTLW yielded a protein stability index of 2.63.
For YSFYMLTCIDMDWKVLDWLRYTLW, the protein stability index was 2.45.
Work on YSFYMLTCIDMDWKVLTWIRYTLW yielded a protein stability index of 2.06.
Work on YSFYMLTCIDMDWKVLTWRRYTLW yielded a protein stability index of 2.4.
For YSFYMLTCIDMDWKVLTWERYTLW, the protein stability index was 2.83.
Work on YSFYMLTCIDMDWKVLTWWRYTLW yielded a protein stability index of 2.31.
With YSFYMLTCIDMDWKVLTWHRYTLW the protein stability index was 2.65.
In the case of YSFYMLTCIDMDWKVLTWMRYTLW, the protein stability index is reported as 1.93.
Work on YSFYMLTCIDMDWKVLTWKRYTLW yielded a protein stability index of 2.22.
Variant YSFYMLTCIDMDWKVLTWFRYTLW has a protein stability index of 3.32.
YSFYMLTCIDMDWKVLTWSRYTLW showed a protein stability index of 1.22.
YSFYMLTCIDMDWKVLTWPRYTLW gave a protein stability index of 3.35.
Variant YSFYMLTCIDMDWKVLTWNRYTLW has a protein stability index of 3.55.
YSFYMLTCIDMDWKVLTWYRYTLW gave a protein stability index of 2.91.
In the case of YSFYMLTCIDMDWKVLTWARYTLW, the protein stability index is reported as 2.9.
YSFYMLTCIDMDWKVLTWQRYTLW showed a protein stability index of 3.25.
YSFYMLTCIDMDWKVLTWDRYTLW gave a protein stability index of 4.18.
With YSFYMLTCIDMDWKVLTWLRYTLA the protein stability index was 2.83.
YSFYMLTCIDMDWKVLTWLRYTLR showed a protein stability index of 2.04.
YSFYMLTCIDMDWKVLTWLRYTLM showed a protein stability index of 3.14.
YSFYMLTCIDMDWKVLTWLRYTLH showed a protein stability index of 3.02.
Variant YSFYMLTCIDMDWKVLTWLRYTLF has a protein stability index of 2.24.
With YSFYMLTCIDMDWKVLTWLRYTLN the protein stability index was 2.55.
In the case of YSFYMLTCIDMDWKVLTWLRYTLC, the protein stability index is reported as 2.42.
YSFYMLTCIDMDWKVLTWLRYTLE gave a protein stability index of 2.77.
In the case of YSFYMLTCIDMDWKVLTWLRYTLP, the protein stability index is reported as 2.58.
With YSFYMLTCIDMDWKVLTWLRYTLY the protein stability index was 2.72.
In the case of YSFYMLTCIDMDWKVLTWLRYTLK, the protein stability index is reported as 1.37.
For YSFYMLTCIDMDWKVLTWLRYTLD, the protein stability index was 4.01.
With YSFYMLTCIDMDWKVLTWLRYTLG the protein stability index was 2.39.
With YSFYMLTCIDMDWKVLTWLRYTLI the protein stability index was 3.4.
YSFYMLTCIDMDWYVLTWLRYTLW showed a protein stability index of 2.61.
In the case of YSFYMLTCIDMDWQVLTWLRYTLW, the protein stability index is reported as 2.03.
Work on YSFYMLTCIDMDWWVLTWLRYTLW yielded a protein stability index of 2.45.
Variant YSFYMLTCIDMDWTVLTWLRYTLW has a protein stability index of 3.16.
In the case of YSFYMLTCIDMDWPVLTWLRYTLW, the protein stability index is reported as 3.03.
In the case of YSFYMLTCIDMDWNVLTWLRYTLW, the protein stability index is reported as 3.02.
YSFYMLTCIDMDWLVLTWLRYTLW gave a protein stability index of 3.3.
YSFYMLTCIDMDWMVLTWLRYTLW showed a protein stability index of 1.28.
In the case of YSFYMLTCIDMDWRVLTWLRYTLW, the protein stability index is reported as 2.34.
Work on YSFYMLTCIDMDWKVLTWLRYTSW yielded a protein stability index of 2.99.
